# Article doi:10.1101/2025.06.12.659276
# Biological target: mGq fused to GFP10
# Assay: BRET (mGq-GFP recruitment to Rluc-fused receptor)
# Conditions: n = 4, parent: est. 0.30, read off a plot
substance,measurement,setting,value
"US28-Rluc (from UniProt P69332) US28-PDCT: S>A at 12 sites and T>V at 2 sites after helix 8, in the printed stretch QRLF[S>A]RDV[S>A]WYH[S>A]M[S>A]F[S>A]RR[S>A][S>A]P[S>A]RRE[T>V][S>A][S>A]D[T>V]L[S>A]DEVCRV[S>A]QIIP; residue numbers not printed",response,parental HEK-293 cells,0.31
same,response,β-arrestin 1/2-deficient (Δβarr1/2) HEK-293 cells,0.26
